From PMC4899803

Target: cytochrome bd from Escherichia coli, His6-tagged (His6-CydABX) (E. coli) (UniProt P0ABJ9)
Test: SEC; 500 ug purified cytochrome bd on Superose 6 10/300 in 50 mM MOPS, 100 mM NaCl, 0.1% LM, pH 7; UV 280 nm, refractive index and right angle light scattering monitored

- stoichiometry N: 4
Substance: cytochrome bd from Escherichia coli, His6-tagged (His6-CydABX) (from UniProt P0ABJ9 1-522; P0ABK2 1-379) (complex)
